In the RNAGym collection of RNA variant scans (doi:10.7554/elife.80360):

B1: HDV Ribozyme (parent)
chain: GGCCGGCAUGGUCCCAGCCUCCUCGCUGGCGCCGGCUGGGCAACAUUCCGAGGGGACCGUCCCCUCGGUAAUGGCGAAUGGGACCCA

Variants of: B1
Test: self-cleavage, relative activity (ratio to wild type); higher = more cleavage; co-transcriptional
With G6A U79C the self-cleavage was 0.128. G6C gave a self-cleavage of 0.294. For G6C A16C, the self-cleavage was 0.712. With G6C A16G the self-cleavage was 0.151. In the case of G6C A42G, the self-cleavage is reported as 0. G6C A43U showed a self-cleavage of 0.0594. With G6C A45G the self-cleavage was 0.361. G6C A45U showed a self-cleavage of 0.0615. G6C A51C gave a self-cleavage of 0.225. With G6C A56C the self-cleavage was 0.401. For G6C A70G, the self-cleavage was 0.175. Variant G6C A77G has a self-cleavage of 0.0791. G6C A83G showed a self-cleavage of 0.189. G6C A87C gave a self-cleavage of 0.312. G6C A87U showed a self-cleavage of 0.282. With G6C C14A the self-cleavage was 0. With G6C C14U the self-cleavage was 0.453. Variant G6C C18A has a self-cleavage of 0.0791. G6C C18U gave a self-cleavage of 0.0923. G6C C19A gave a self-cleavage of 0. For G6C C19G, the self-cleavage was 0.192. For G6C C21A, the self-cleavage was 0. Variant G6C C22A has a self-cleavage of 0. In the case of G6C C30A, the self-cleavage is reported as 0.0415. With G6C C32A the self-cleavage was 0.482. Work on G6C C36A yielded a self-cleavage of 0.095. For G6C C44G, the self-cleavage was 0.0692. G6C C48U gave a self-cleavage of 0.277. G6C C49U showed a self-cleavage of 0.489. Variant G6C C66G has a self-cleavage of 0.332. Work on G6C C75U yielded a self-cleavage of 0.095. Work on G6C C86A yielded a self-cleavage of 0.482. In the case of G6C G10C, the self-cleavage is reported as 0.0875. Work on G6C G11A yielded a self-cleavage of 0. G6C G11C showed a self-cleavage of 0.138. Variant G6C G17C has a self-cleavage of 0. For G6C G25U, the self-cleavage was 0.166. In the case of G6C G28C, the self-cleavage is reported as 0. For G6C G34A, the self-cleavage was 0.0536. Variant G6C G35C has a self-cleavage of 0.0723. With G6C G35U the self-cleavage was 0.256. In the case of G6C G38C, the self-cleavage is reported as 0. In the case of G6C G40A, the self-cleavage is reported as 0.259. Work on G6C G50C yielded a self-cleavage of 0.554. G6C G53U showed a self-cleavage of 0.138. Variant G6C G54C has a self-cleavage of 0.604. In the case of G6C G55C, the self-cleavage is reported as 0.308. Work on G6C G55U yielded a self-cleavage of 0.177. Work on G6C G68U yielded a self-cleavage of 0.277. Variant G6C G73U has a self-cleavage of 0.0923. G6C G76A gave a self-cleavage of 0.297. With G6C G76U the self-cleavage was 0.604. With G6C G80U the self-cleavage was 0.0692. G6C G82A showed a self-cleavage of 0. For G6C G82C, the self-cleavage was 0.0405. For G6C U9A, the self-cleavage was 0.256. Variant G6C U37A has a self-cleavage of 0.0791. With G6C U37C the self-cleavage was 0.923. With G6C U46C the self-cleavage was 0.145. G6C U47A showed a self-cleavage of 0.0875. G6C U47G showed a self-cleavage of 0.158. Variant G6C U65C has a self-cleavage of 0.277. In the case of G6C U69G, the self-cleavage is reported as 0.166. G6C U72A showed a self-cleavage of 0.0755. G6C U72C showed a self-cleavage of 0.0831. Variant G6C U79A has a self-cleavage of 0.119. With G6U the self-cleavage was 0.63. Work on G6U A8G yielded a self-cleavage of 0.346. Work on G6U A8U yielded a self-cleavage of 0.403. Work on G6U A42C yielded a self-cleavage of 0. G6U A42G showed a self-cleavage of 0.214. Variant G6U A56U has a self-cleavage of 0.703. G6U A70G gave a self-cleavage of 0.571. Work on G6U A71U yielded a self-cleavage of 0.415. In the case of G6U A78C, the self-cleavage is reported as 0.252. G6U A87C showed a self-cleavage of 0.592. With G6U A87G the self-cleavage was 0.377. G6U C7A gave a self-cleavage of 0.227. G6U C13U showed a self-cleavage of 0.249. Work on G6U C15G yielded a self-cleavage of 0.0875. Variant G6U C19A has a self-cleavage of 0.0326. In the case of G6U C19G, the self-cleavage is reported as 0.0692. G6U C22A gave a self-cleavage of 0.0489. G6U C24G showed a self-cleavage of 0.0462. Work on G6U C26G yielded a self-cleavage of 0.364. In the case of G6U C44U, the self-cleavage is reported as 0.162. G6U C48G showed a self-cleavage of 0.374. G6U C49A gave a self-cleavage of 0.582. Work on G6U C49G yielded a self-cleavage of 0.306. With G6U C49U the self-cleavage was 0.485. G6U C58A gave a self-cleavage of 0.672. G6U C58G showed a self-cleavage of 0.628. G6U C58U gave a self-cleavage of 0.617. For G6U C61U, the self-cleavage was 0.525. With G6U C62A the self-cleavage was 0.54. Work on G6U C62G yielded a self-cleavage of 0.332. Work on G6U C63U yielded a self-cleavage of 0.763. With G6U C66U the self-cleavage was 0.645. G6U C84A showed a self-cleavage of 0.375. For G6U C84U, the self-cleavage was 0.208. With G6U C85U the self-cleavage was 0.646. For G6U G10U, the self-cleavage was 0.0791. G6U G17A gave a self-cleavage of 0.19. For G6U G17C, the self-cleavage was 0.0554. For G6U G25C, the self-cleavage was 0.0426. In the case of G6U G28A, the self-cleavage is reported as 0. For G6U G28C, the self-cleavage was 0.0739. With G6U G29U the self-cleavage was 0.104. In the case of G6U G31U, the self-cleavage is reported as 0.121. For G6U G34C, the self-cleavage was 0.0405. Work on G6U G35C yielded a self-cleavage of 0.0437. Work on G6U G38C yielded a self-cleavage of 0.095. G6U G39A gave a self-cleavage of 0.0811. Variant G6U G40A has a self-cleavage of 0.587. G6U G40C showed a self-cleavage of 0.193. G6U G50A showed a self-cleavage of 0.372. In the case of G6U G50U, the self-cleavage is reported as 0.475. G6U G52A showed a self-cleavage of 0.739. In the case of G6U G67C, the self-cleavage is reported as 0.73. Variant G6U G68U has a self-cleavage of 0.554. G6U G73C showed a self-cleavage of 0.266. For G6U G73U, the self-cleavage was 0. G6U G74A gave a self-cleavage of 0.16. G6U G74U gave a self-cleavage of 0.151. In the case of G6U G76C, the self-cleavage is reported as 0.676. In the case of G6U G80C, the self-cleavage is reported as 0.0898. With G6U G82U the self-cleavage was 0. With G6U U9G the self-cleavage was 0.511. G6U U20A gave a self-cleavage of 0.0978. For G6U U20C, the self-cleavage was 0.133. In the case of G6U U23G, the self-cleavage is reported as 0.178. G6U U27C gave a self-cleavage of 0.237. G6U U27G showed a self-cleavage of 0.172. With G6U U37G the self-cleavage was 0.0554. G6U U65A gave a self-cleavage of 0.431. For G6U U65C, the self-cleavage was 0.289. G6U U72C showed a self-cleavage of 0. C7A A43C showed a self-cleavage of 0.0923. C7A A45C gave a self-cleavage of 0.0462. Variant C7A A45G has a self-cleavage of 0.705. In the case of C7A A51U, the self-cleavage is reported as 0.538. For C7A A77C, the self-cleavage was 0.115. For C7A A77G, the self-cleavage was 0.107. Variant C7A A77U has a self-cleavage of 0.0875. Variant C7A A83G has a self-cleavage of 0.141. C7A A83U showed a self-cleavage of 0.0426. C7A A87G showed a self-cleavage of 0.521. In the case of C7A C13G, the self-cleavage is reported as 0. For C7A C13U, the self-cleavage was 0.0361. With C7A C15U the self-cleavage was 0.283. For C7A C18U, the self-cleavage was 0.229. In the case of C7A C19A, the self-cleavage is reported as 0.0277. Work on C7A C19G yielded a self-cleavage of 0.145. In the case of C7A C24G, the self-cleavage is reported as 0.0415. In the case of C7A C26G, the self-cleavage is reported as 0.554. C7A C26U gave a self-cleavage of 0.919. C7A C32A gave a self-cleavage of 0.332. Work on C7A C32U yielded a self-cleavage of 0.227. C7A C33A showed a self-cleavage of 0.0639. With C7A C33G the self-cleavage was 0.0519. With C7A C36G the self-cleavage was 0.0875. With C7A C41U the self-cleavage was 0.489. Variant C7A C44G has a self-cleavage of 0.0594. For C7A C44U, the self-cleavage was 0.0723. For C7A C48G, the self-cleavage was 0.462. Work on C7A C49G yielded a self-cleavage of 0.291. Variant C7A C58A has a self-cleavage of 0.772.
